Columns and labels:
human CD20 (human) [1] = target: human CD20 (human) (UniProt P11836); test: flow cytometry on JY cells, simultaneous binding assay, 200 ng biotinylated BAFF, CD20 channel FL-1
human CD20 (human) [2] = target: human CD20 (human) (UniProt P11836); test: flow cytometry on JY cells, simultaneous binding assay, 0.32 ng biotinylated BAFF, CD20 channel FL-1
human CD20 (human) [3] = target: human CD20 (human) (UniProt P11836); test: flow cytometry on JY cells, simultaneous binding assay, 1000 ng biotinylated BAFF, CD20 channel FL-1
human CD20 (human) [4] = target: human CD20 (human) (UniProt P11836); test: flow cytometry on JY cells, simultaneous binding assay, 5000 ng biotinylated BAFF, CD20 channel FL-1
[5] = target: recombinant human soluble BAFF (human) (UniProt Q9Y275); test: flow cytometry on JY cells, simultaneous binding assay, 200 ng biotinylated BAFF, BAFF channel FL-2 (PE)
[6] = target: recombinant human soluble BAFF (human) (UniProt Q9Y275); test: flow cytometry on JY cells, simultaneous binding assay, 0.32 ng biotinylated BAFF, BAFF channel FL-2 (PE)
[7] = target: recombinant human soluble BAFF (human) (UniProt Q9Y275); test: flow cytometry on JY cells, simultaneous binding assay, 1000 ng biotinylated BAFF, BAFF channel FL-2 (PE)
[8] = target: recombinant human soluble BAFF (human) (UniProt Q9Y275); test: flow cytometry on JY cells, simultaneous binding assay, 5000 ng biotinylated BAFF, BAFF channel FL-2 (PE)

Sequence of human CD20 (human) (P11836 whole entry): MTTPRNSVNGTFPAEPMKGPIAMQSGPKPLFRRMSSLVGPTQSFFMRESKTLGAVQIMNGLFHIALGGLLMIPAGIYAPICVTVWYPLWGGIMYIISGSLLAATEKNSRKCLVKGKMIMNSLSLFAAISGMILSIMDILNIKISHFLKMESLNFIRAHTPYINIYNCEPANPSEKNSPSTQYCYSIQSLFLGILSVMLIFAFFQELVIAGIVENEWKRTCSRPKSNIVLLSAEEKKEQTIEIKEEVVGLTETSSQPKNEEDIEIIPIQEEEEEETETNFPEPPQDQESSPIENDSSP
Sequence of recombinant human soluble BAFF (human) (Q9Y275 134-285 limits assumed): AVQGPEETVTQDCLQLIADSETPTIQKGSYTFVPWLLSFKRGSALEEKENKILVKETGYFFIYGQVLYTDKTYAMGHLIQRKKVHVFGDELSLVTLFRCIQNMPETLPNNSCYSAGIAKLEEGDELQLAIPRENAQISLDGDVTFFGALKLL

control human IgG1 antibody
MFI (human CD20 (human) [1]): 18 MFI | MFI (human CD20 (human) [2]): 9.8 MFI | MFI (human CD20 (human) [3]): 9.14 MFI | MFI (human CD20 (human) [4]): 8.5 MFI | MFI [5]: 1.43 MFI | MFI [6]: 1.31 MFI | MFI [7]: 1.3 MFI | MFI [8]: 1.26 MFI

From patent publication US20160289342A1
